According to article PMC6220269, “Dynamic ubiquitylation of Sox2 regulates proteostasis and governs neural progenitor cell differentiation” (Nature Communications, 2018):

Target: T1, His-Sox2 (human, UniProt P48431 1-317)
T1 construct: Sox2, human, cloned into pGEX-6p-1 or pET-28a (+) for the GST pull-down; source: E. coli BL21, purified
Assay: pull-down; GST-tagged protein on glutathione-Sepharose 4B beads incubated with His-tagged protein for 24 h at 4 °C; washed four times with 100 mM NaCl, 10 mM Tris, 50 mM NaF, 2 mM EDTA, 0.5 mM Na3VO4, 1% Nonidet P40; western blot
Conditions: both partners purified

T1 sequence (P48431 whole entry): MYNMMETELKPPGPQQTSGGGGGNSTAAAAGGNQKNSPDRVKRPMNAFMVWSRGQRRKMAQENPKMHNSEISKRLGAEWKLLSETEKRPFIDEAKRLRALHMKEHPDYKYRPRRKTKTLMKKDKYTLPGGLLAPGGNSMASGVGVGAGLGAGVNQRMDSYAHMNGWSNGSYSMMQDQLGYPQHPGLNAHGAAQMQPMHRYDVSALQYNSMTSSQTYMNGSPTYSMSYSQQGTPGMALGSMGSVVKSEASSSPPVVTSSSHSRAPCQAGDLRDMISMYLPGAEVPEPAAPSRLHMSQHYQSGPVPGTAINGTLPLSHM

- binding result: binds
B1: GST-OTUD7B-ZF (811–843) (domain or fragment, human, UniProt Q6GQQ9 811-843, looked up)
chain: GHPETNNFCSCCYREELRRREREPDGELLVHRF
notes: OTUD7B, human, C-terminal zinc finger (ZF) domain, residues 811-843; also called OTUD7B ZF domain; source: E. coli BL21, purified
